System: Bacillus subtilis DB104 (SP-AmyQ fusion secretion)
Assay: AmyQ secretion efficiency, weighted average sort bin (1 = best secretion, 10 = worst) (bin number (weighted average, 1-10)); higher = lower secretion efficiency
In short: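 Secretion score gives the read-frequency-weighted average bin number, normalised to beads per bin, with low-abundance sequences left out. A B. subtilis DB104 library expressing mature AmyQ fused to designed signal peptides, integrated at amyE, was encapsulated with fluorescein-starch at about 0.3 cells per ~65 nL alginate bead. Beads were grown about 13 h at room temperature, stained with nile red, and the occupied ones were sorted by large-particle flow cytometry into 10 equally populated bins by green/red fluorescence ratio before the amplicons from each bin were Illumina-sequenced.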

Sequence	AmyQ secretion efficiency
MKLSVKIAGVLTVAAAAMTAKMYKTAKGN	7.2
MKLSVKIAGVLTVAAAAMTAKMYLTAKGN	7.31
MKLSVKIAGVLTVAAAAMTAKMYMTAKGN	6.8
MKLSVKIAGVLTVAAAAMTAKMYNTAKGN	6.07
MKLSVKIAGVLTVAAAAMTAKMYPTAKGN	5.7
MKLSVKIAGVLTVAAAAMTAKMYQTAKGN	7.71
MKLSVKIAGVLTVAAAAMTAKMYRTAKGN	7.39
MKLSVKIAGVLTVAAAAMTAKMYSTAKGN	6.41
MKLSVKIAGVLTVAAAAMTAKMYTTAKGN	7.65
MKLSVKIAGVLTVAAAAMTAKMYVTAKGN	8.14
MKLSVKIAGVLTVAAAAMTAKMYWTAKGN	7.62
MKLSVKIAGVLTVAAAAMTAKMYYTAKGN	6.5
MKLSVKIAGVLTVAAAAMVAFTIAFFFTAKMYATAKGN	2.45
MKLSVKIAGVLTVAAAAMVAIMGATAKGN	8.27
MKLSVKIAGVLTVAATAKMYATAKGN	7.17
MKLSVKIALVLIVAAAAMTAKMYATAKGN	3.77
MKLSVKIKKKRRKAAAAMTAKMYATAKGN	7.56
MKLSVKIRKVLTVAAAAMTAKMYATAKGN	6.94
MKLSVKIRRRKTVAAAAMTAKMYATAKGN	7.97
MKLSVKRGTTLTVAAAAMTAKMYATAKGN	7.06
MKLSVKTRQKTTVAAAAMTAKMYATAKGN	7.48
MKLWMRKTLRRKKRKVTFGLVSPPAALMADKP	7.28
MKLWMRKTLRRLFTIVTFGLVSPPAALMADKP	7.18
MKLWMRKTLVVLFLIVFFFLGTVSPPAALMADKP	3.95
MKLWMRKTLVVLFTIVTFGLKKRPAALMADKP	6.91
MKLWMRKTLVVLFTIVTFGLVIATFTTVAVSPPAALMADKP	4.44

Sequence	AmyQ secretion efficiency
MKLWMRKTLVVLFTIVTFGLVSPPAAEMADKP	2.41
MKLWMRKTLVVLFTIVTFGLVSPPAAFMADKP	2.2
MKLWMRKTLVVLFTIVTFGLVSPPAAGMADKP	3.4
MKLWMRKTLVVLFTIVTFGLVSPPAAHMADKP	2.08
MKLWMRKTLVVLFTIVTFGLVSPPAAIMADKP	1.63
MKLWMRKTLVVLFTIVTFGLVSPPAAKMADKP	3.22
MKLWMRKTLVVLFTIVTFGLVSPPAALMAATP	2.71
MKLWMRKTLVVLFTIVTFGLVSPPAALMCDKP	2.74
MKLWMRKTLVVLFTIVTFGLVSPPAALMFDKP	3.85
MKLWMRKTLVVLFTIVTFGLVSPPAALMGDKP	4.12
MKLWMRKTLVVLFTIVTFGLVSPPAALMIDKP	2.83
MKLWMRKTLVVLFTIVTFGLVSPPAALMMDKP	2.97
MKLWMRKTLVVLFTIVTFGLVSPPAALMQDKP	2.54
MKLWMRKTLVVLFTIVTFGLVSPPAALMSDKP	3.94
MKLWMRKTLVVLFTIVTFGLVSPPAALMTDKP	2.85
MKLWMRKTLVVLFTIVTFGLVSPPAALMVDKP	2.11
MKLWMRKTLVVLFTIVTFGLVSPPAALMYDKP	3.73
MKLWMRKTLVVLFTIVTFGLVSPPAAMMADKP	1.82
MKLWMRKTLVVLFTIVTFGLVSPPAAQMADKP	1.81
MKLWMRKTLVVLFTIVTFGLVSPPAARMADKP	2.4
MKLWMRKTLVVLFTIVTFGLVSPPAASMADKP	1.85
MKLWMRKTLVVLFTIVTFGLVSPPAATMADKP	2.68
MKLWMRKTLVVLFTIVTFGLVSPPAAVMADKP	2.79
MKLWMRKTLVVLFTIVTFGLVSPPALMADKP	1.9
MKLWMRKTLVVLFTIVTFGLVVPPAALMADKP	2.83

Source: the supplement of paper PMC9942255
